From publication PMC11033527, “Inhibition of SARS-CoV-2 nucleocapsid protein–RNA interaction by guanosine oligomeric RNA”

Assays:
[1] = biological target: SARS-CoV-2 nucleocapsid protein full length (NP) (SARS-CoV-2, UniProt P0DTC9 1-419)
[2] = biological target: T1, SARS-CoV-2 nucleocapsid N-terminal RNA-binding domain (NTD) (SARS-CoV-2, UniProt P0DTC9 46-174); assay: EMSA competition; vs 32P-probe RNA; n=6; conditions: protein: recombinant; tags: His-tag (pET-15b)
[3] = biological target: T1, SARS-CoV-2 nucleocapsid N-terminal …; assay: EMSA competition; vs 32P-probe RNA; n=3; conditions: protein: recombinant; tags: His-tag (pET-15b)
[4] = biological target: T1, SARS-CoV-2 nucleocapsid N-terminal …; assay: EMSA; 800 ng NTD, 5 ng RNA; conditions: protein: recombinant; tags: His-tag (pET-15b); label: 32P-CTP internal
[5] = biological target: T1, SARS-CoV-2 nucleocapsid N-terminal …; assay: EMSA competition; vs 32P-probe RNA; n=4; conditions: protein: recombinant; tags: His-tag (pET-15b)
[6] = biological target: T1, SARS-CoV-2 nucleocapsid N-terminal …; assay: EMSA competition; vs 32P-probe RNA; n=7; conditions: protein: recombinant; tags: His-tag (pET-15b)

## GGGGGGGGGGGG (ssRNA) [G12]
[1]
  binding result: binds

## CCAGCG (ssRNA) [mIn-1 (mIn-1-1)]
[2]
  IC50: 3.48 ± 1.46 µM

## AAAAAA (ssRNA) [A6]
[3]
  IC50: 22.9 ± 16.4 µM

## CGAGGCCACGCGGAGUACGAUCGAGUGUACAG (ssRNA) [FITC-probe RNA (32-base)]
[1]
  binding result: binds

## GGGCGAGGCCACGCGGAGUACGAUCGAGUGUACAG (ssRNA) [32P-probe RNA (T7 transcript)]
[4]
  binding result: binds

## GGGGGG (ssRNA) [G6]
[5]
  IC50: 0.62 ± 0.07 µM

## CCGGCG (ssRNA) [In-1]
[6]
  IC50: 34.3 ± 27.8 µM
